Key:
[1] = molecular target: T1, PSMA胞外区蛋白 (recombinant extracellular region of prostate specific membrane antigen, expressed in HEK-293) (UniProt Q04609 44-750, limits assumed); test: indirect phage ELISA, PSMA extracellular region protein coated at 5 μg/mL, HRP-anti-M13 detection
T1 construct: extracellular domain; also called 前列腺特异性膜抗原膜外区; PSMA蛋白

[2] = molecular target: T2, PSMA on LNCaP prostate cancer cells (UniProt Q04609 1-750, limits assumed); test: cell ELISA on fixed LNCaP (PSMA+) against MKN45 (PSMA-) cells, HRP-anti-M13, OD450
T2 construct: whole, on cells; Cells fixed with 4% paraformaldehyde before the assay; also called 前列腺特异性膜抗原; LNCaP细胞(表达PSMA)
T2 sequence (Q04609 whole entry): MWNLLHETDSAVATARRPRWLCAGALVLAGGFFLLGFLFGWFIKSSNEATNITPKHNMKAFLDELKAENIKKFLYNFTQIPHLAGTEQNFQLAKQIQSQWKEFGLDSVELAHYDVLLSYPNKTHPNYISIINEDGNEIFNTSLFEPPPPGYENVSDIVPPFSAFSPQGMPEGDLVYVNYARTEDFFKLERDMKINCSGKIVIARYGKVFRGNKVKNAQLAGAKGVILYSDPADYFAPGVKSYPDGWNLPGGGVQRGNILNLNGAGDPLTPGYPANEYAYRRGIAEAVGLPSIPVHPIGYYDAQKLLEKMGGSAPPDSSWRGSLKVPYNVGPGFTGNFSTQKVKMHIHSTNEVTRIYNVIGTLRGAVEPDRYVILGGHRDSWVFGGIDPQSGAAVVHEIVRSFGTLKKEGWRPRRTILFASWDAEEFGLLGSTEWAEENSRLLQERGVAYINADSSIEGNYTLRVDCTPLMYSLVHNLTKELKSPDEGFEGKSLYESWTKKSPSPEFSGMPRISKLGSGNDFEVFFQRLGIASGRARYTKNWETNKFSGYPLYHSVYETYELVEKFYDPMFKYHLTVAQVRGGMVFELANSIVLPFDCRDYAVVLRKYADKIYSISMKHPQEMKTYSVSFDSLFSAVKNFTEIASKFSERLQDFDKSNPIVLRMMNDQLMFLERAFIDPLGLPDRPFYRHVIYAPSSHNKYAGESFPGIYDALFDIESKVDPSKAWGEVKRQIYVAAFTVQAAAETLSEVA

T1 sequence (Q04609 44-750 limits assumed): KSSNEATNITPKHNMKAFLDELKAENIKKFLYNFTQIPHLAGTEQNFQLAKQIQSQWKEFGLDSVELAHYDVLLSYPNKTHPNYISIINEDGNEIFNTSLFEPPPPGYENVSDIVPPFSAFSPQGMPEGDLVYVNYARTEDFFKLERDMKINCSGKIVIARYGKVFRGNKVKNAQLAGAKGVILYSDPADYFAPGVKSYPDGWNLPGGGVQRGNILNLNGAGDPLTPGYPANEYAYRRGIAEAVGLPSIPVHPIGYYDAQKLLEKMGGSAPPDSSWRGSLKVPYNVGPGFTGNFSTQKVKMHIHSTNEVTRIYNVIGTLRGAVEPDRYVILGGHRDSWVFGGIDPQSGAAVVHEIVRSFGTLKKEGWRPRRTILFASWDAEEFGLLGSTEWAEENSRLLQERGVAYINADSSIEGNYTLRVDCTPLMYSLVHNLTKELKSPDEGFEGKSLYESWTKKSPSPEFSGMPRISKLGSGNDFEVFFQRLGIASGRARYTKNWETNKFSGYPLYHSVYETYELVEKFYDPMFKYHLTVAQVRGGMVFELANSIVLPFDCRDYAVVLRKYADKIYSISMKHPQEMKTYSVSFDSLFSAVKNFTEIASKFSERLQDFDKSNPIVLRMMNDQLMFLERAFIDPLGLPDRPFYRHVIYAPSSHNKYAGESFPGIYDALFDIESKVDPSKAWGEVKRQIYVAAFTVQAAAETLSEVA

B1: 抗前列腺特异性膜抗原单域重链抗体噬菌体阳性克隆 (phage clone displaying the anti-PSMA single-domain heavy-chain antibody) (VHH)
VHH: QVQLVESGGGLVQAGGSLRLSCAASGRTISRYAVGWFRQAPGKDREFVAGITRSSSLTGYTDSVKGRFTISRDNAENTVYLQMNSLKPEDTAVYYCAGGPGSYKYWGKGTQVTVSS
notes: detected with anti-M13 antibodies; also called 展示本发明所述纳米抗体的噬菌体克隆; not shown: hinge/linker and coat protein fusion are not described
binding result [1]: binds
binding result [2]: binds
